From publication PMC5214336

What was measured:
[1] = molecular target: 4AG model TA substrate labelled with Cm (S. cerevisiae) (UniProt P25385); assay: FRET or BRET; equilibrium titration of TA transfer from Sgt2 to Get3: 20-50 nM purified Sgt2•TA^Cm, 150 nM Sgt2, 150 nM Get4/5, 2 mM ATP, varied Get3^BDP; GET buffer, 25°C; apparent K1/2 at 150 nM Sgt2
[2] = molecular target: Bos1 model TA substrate labelled with 7-hydroxycoumaryl ethylglycine (Cm) (S. cerevisiae) (UniProt P25385); assay: as above
[3] = molecular target: 5AG model TA substrate labelled with Cm (S. cerevisiae) (UniProt P25385); assay: as above
[4] = molecular target: 2AG model TA substrate labelled with Cm (S. cerevisiae) (UniProt P25385); assay: as above
[5] = molecular target: 3AG model TA substrate labelled with Cm (S. cerevisiae) (UniProt P25385); assay: as above
[6] = molecular target: Bos1-FisC model TA substrate labelled with Cm (S. cerevisiae); assay: as above
[7] = molecular target: 4AG model TA substrate labelled with Cm (S. cerevisiae) (UniProt P25385); assay: FRET or BRET; stopped-flow time courses of TA transfer with Get4/5: ~50 nM Sgt2•TA^Cm in 150 nM Sgt2 mixed 1:1 with 400 nM Get3^BDP, 400 nM Get4/5, 2 mM ATP; donor fluorescence at 445 nm; biphasic fit
[8] = molecular target: Bos1 model TA substrate labelled with 7-hydroxycoumaryl ethylglycine (Cm) (S. cerevisiae) (UniProt P25385); assay: as above
[9] = molecular target: 5AG model TA substrate labelled with Cm (S. cerevisiae) (UniProt P25385); assay: as above
[10] = molecular target: 2AG model TA substrate labelled with Cm (S. cerevisiae) (UniProt P25385); assay: as above
[11] = molecular target: 3AG model TA substrate labelled with Cm (S. cerevisiae) (UniProt P25385); assay: as above
[12] = molecular target: Bos1-FisC model TA substrate labelled with Cm (S. cerevisiae); assay: as above
[13] = molecular target: 6AG model TA substrate labelled with Cm (S. cerevisiae) (UniProt P25385); assay: FRET or BRET; pulse-chase: 20-50 nM preformed purified Get3^BDP•TA^Cm chased with a 10-fold excess of unlabeled Get3; loss of FRET followed in time
[14] = molecular target: 4AG model TA substrate labelled with Cm (S. cerevisiae) (UniProt P25385); assay: as above
[15] = molecular target: Bos1 model TA substrate labelled with 7-hydroxycoumaryl ethylglycine (Cm) (S. cerevisiae) (UniProt P25385); assay: as above
[16] = molecular target: 5AG model TA substrate labelled with Cm (S. cerevisiae) (UniProt P25385); assay: as above
[17] = molecular target: 2AG model TA substrate labelled with Cm (S. cerevisiae) (UniProt P25385); assay: as above
[18] = molecular target: 3AG model TA substrate labelled with Cm (S. cerevisiae) (UniProt P25385); assay: as above
[19] = molecular target: Bos1-FisC model TA substrate labelled with Cm (S. cerevisiae); assay: as above
[20] = molecular target: Bos1 model TA substrate labelled with 7-hydroxycoumaryl ethylglycine (Cm) (S. cerevisiae) (UniProt P25385); assay: FRET or BRET; stopped-flow time course of TA transfer from Sgt2 to Get3^BDP without Get4/5

B1: BODIPY-FL-labeled ybbR-Get3 (enzyme)
chain: MDLTVEPNLHSLITSTTHKWIFVGGKGGVGKTTSSCSIAIQMALSQPNKQFLLISTDPAHNLSDAFGEKFGKDARKVTGMNNLSCMEIDPSAALKDMNDMAVSRANNNGSDGQGDDLGSLLQGGALADLTGSIPGIDEALSFMEVMKHIKRQEQGEGETFDTVIFDTAPTGHTLRFLQLPNTLSKLLEKFGEITNKLGPMLNSFMGAGNVDISGKLNELKANVETIRQQFTDPDLTTFVCVCISEFLSLYETERLIQELISYDMDVNSIIVNQLLFAENDQEHNCKRCQARWKMQKKYLDQIDELYEDFHVVKMPLCAGEIRGLNNLTKFSQFLNKEYNPITDGKVIYELEDKE
modifications: CoA-BODIPY-FL enzymatically conjugated to the ybbR tag by the Sfp phosphopantetheinyl transferase
- K1/2 (Get3 for 50% TA transfer from Sgt2, at 150 nM Sgt2) [1]: 5.7 nM
- K1/2 (Get3 for 50% TA transfer from Sgt2, at 150 nM Sgt2) [2]: 5.2 nM
- K1/2 (Get3 for 50% TA transfer from Sgt2, at 150 nM Sgt2) [3]: 10 nM
- K1/2 (Get3 for 50% TA transfer from Sgt2, at 150 nM Sgt2) [4]: 6.4 nM
- K1/2 (Get3 for 50% TA transfer from Sgt2, at 150 nM Sgt2) [5]: 3.7 nM
- K1/2 (Get3 for 50% TA transfer from Sgt2, at 150 nM Sgt2) [6]: 9.2 nM
- k fast of TA transfer from Sgt2 to Get3 (fast phase) [7]: 0.183 s⁻¹
- k slow of TA transfer from Sgt2 to Get3 (slow phase) [7]: 0.033 s⁻¹
- t1/2 of TA transfer from Sgt2 to Get3 [7]: 6.3 s
- k fast of TA transfer from Sgt2 to Get3 (fast phase) [8]: 0.047 s⁻¹
- k slow of TA transfer from Sgt2 to Get3 (slow phase) [8]: 0.011 s⁻¹
- t1/2 of TA transfer from Sgt2 to Get3 [8]: 17.7 s
- k fast of TA transfer from Sgt2 to Get3 (fast phase) [9]: 0.151 s⁻¹
- k slow of TA transfer from Sgt2 to Get3 (slow phase) [9]: 0.023 s⁻¹
- t1/2 of TA transfer from Sgt2 to Get3 [9]: 11.8 s
- k fast of TA transfer from Sgt2 to Get3 (fast phase) [10]: 0.077 s⁻¹
- k slow of TA transfer from Sgt2 to Get3 (slow phase) [10]: 0.007 s⁻¹
- t1/2 of TA transfer from Sgt2 to Get3 [10]: 13.5 s
- k fast of TA transfer from Sgt2 to Get3 (fast phase) [11]: 0.164 s⁻¹
- k slow of TA transfer from Sgt2 to Get3 (slow phase) [11]: 0.017 s⁻¹
- t1/2 of TA transfer from Sgt2 to Get3 [11]: 4.8 s
- k fast of TA transfer from Sgt2 to Get3 (fast phase) [12]: 0.063 s⁻¹
- k slow of TA transfer from Sgt2 to Get3 (slow phase) [12]: 0.009 s⁻¹
- t1/2 of TA transfer from Sgt2 to Get3 [12]: 12.3 s
- koff [13]: 0.00333 s⁻¹
- koff [14]: 0.000283 s⁻¹
- koff [15]: 0.0003 s⁻¹
- koff [16]: 0.000567 s⁻¹
- koff [17]: 0.000383 s⁻¹
- koff [18]: 0.000433 s⁻¹
- koff [19]: 0.000483 s⁻¹
- k fast of TA transfer from Sgt2 to Get3 (fast phase) [20]: 0.0094 s⁻¹
- k slow of TA transfer from Sgt2 to Get3 (slow phase) [20]: 0.003 s⁻¹
- t1/2 of TA transfer from Sgt2 to Get3 [20]: 98 s
